From publication doi:10.1101/2020.12.08.415398 (bioRxiv, 2020)
Like-named read-outs stand apart in the source and are kept apart here.

Columns and labels:
[1] = biological target: T1, GPR133 (ADGRD1) C-terminal fragment (CTF) with C-terminal TwinStrep tag, from C-terminally tagged wild-type … (human); assay: pull-down
T1 chain: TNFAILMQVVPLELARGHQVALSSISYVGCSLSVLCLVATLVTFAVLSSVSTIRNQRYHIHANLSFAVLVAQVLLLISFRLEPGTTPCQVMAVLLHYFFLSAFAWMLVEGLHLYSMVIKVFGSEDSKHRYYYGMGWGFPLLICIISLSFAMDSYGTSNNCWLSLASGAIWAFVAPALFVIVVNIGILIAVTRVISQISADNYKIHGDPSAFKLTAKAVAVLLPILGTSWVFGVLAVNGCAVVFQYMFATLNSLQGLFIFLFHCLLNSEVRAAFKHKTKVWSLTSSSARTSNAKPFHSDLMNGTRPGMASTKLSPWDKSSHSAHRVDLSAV

[2] = biological target: T1, GPR133 (ADGRD1) C-terminal fragment …; assay: pull-down

B1: GPR133 (ADGRD1) N-terminal fragment (NTF), from C-terminally TwinStrep-tagged wild-type GPR133 (domain or fragment, human)
chain: VYSRSQDHPGFQVLASASHYWPLENVDGIHELQDTTGDIVEGKVNKGIYLKEEKGVTLLYYGRYNSSCISKPEQCGPEGVTFSFFWKTQGEQSRPIPSAYGGQVISNGFKVCSSGGRGSVELYTRDNSMTWEASFSPPGPYWTHVLFTWKSKEGLKVYVNGTLSTSDPSGKVSRDYGESNVNLVIGSEQDQAKCYENGAFDEFIIWERALTPDEIAMYFTAAIGKHALLSSTLPSLFMTSTASPVMPTDAYHPIITNLTEERKTFQSPGVILSYLQNVSLSLPSKSLSEQTALNLTKTFLKAVGEILLLPGWIALSEDSAVVLSLIDTIDTVMGHVSSNLHGSTPQVTVEGSSAMAEFSVAKILPKTVNSSHYRFPAHGQSFIQIPHEAFHRHAWSTVVGLLYHSMHYYLNNIWPAHTKIAEAMHHQDCLLFATSHLISLEVSPPPTLSQNLSGSPLITVHLKHRLTRKQHSEATNSSNRVFVYCAFLDFSSGEGVWSNHGCALTRGNLTYSVCRCTHL
modifications: glycosylated (nine N-linked glycosylation sites predicted within the NTF; positions not given)
[1]
  NTF/CTF ratio in the elution (densitometry): 0.17
[2]
  NTF/CTF ratio in the elution (densitometry): 1
